Numbering of substitutions follows the chain as printed. Each block holds one binder with its values, some of them ahead of it.
How the values were obtained:
Test in all cases: immunoblots of bio-IPs from Jurkat cells with stable expression
[1] = biological target: T1, MALT1 (wild type, Flag- and Avi-tagged bio-construct) (human, UniProt Q9UDY8 1-824, Avi-tag biotinylated in vivo by co-expressed BirA)
T1 construct: also called paracaspase; bio-IP purified MALT1
T1 sequence (looked up): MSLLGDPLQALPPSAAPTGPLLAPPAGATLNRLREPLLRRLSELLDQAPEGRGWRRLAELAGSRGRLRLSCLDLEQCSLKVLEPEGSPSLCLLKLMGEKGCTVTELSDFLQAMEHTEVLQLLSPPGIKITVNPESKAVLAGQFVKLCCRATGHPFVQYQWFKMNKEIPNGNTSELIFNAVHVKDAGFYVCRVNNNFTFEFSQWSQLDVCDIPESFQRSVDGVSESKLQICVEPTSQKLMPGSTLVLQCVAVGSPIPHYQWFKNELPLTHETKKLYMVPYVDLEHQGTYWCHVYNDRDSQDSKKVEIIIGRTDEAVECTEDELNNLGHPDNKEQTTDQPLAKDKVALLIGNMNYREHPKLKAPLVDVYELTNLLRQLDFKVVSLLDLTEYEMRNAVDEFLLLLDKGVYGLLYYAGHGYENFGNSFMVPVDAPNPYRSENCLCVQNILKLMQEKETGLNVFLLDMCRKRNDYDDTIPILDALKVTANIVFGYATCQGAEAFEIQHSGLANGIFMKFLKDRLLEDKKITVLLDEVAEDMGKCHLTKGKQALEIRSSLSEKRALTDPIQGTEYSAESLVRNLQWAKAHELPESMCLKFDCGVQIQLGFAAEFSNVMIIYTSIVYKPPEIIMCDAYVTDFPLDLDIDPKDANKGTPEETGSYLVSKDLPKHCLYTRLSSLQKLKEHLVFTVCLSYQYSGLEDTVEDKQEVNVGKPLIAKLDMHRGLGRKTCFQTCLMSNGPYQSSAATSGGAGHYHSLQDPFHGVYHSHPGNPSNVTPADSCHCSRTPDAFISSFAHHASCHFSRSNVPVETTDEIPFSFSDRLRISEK

[2] = biological target: T2, MALT1-R149A (bio-tagged) (human, UniProt Q9UDY8 1-824, Avi-tag biotinylated in vivo by co-expressed BirA)
T2 construct: also called R149A mutant
T2 sequence (looked up): T1 sequence (looked up) with R149A

[3] = biological target: T3, MALT1-C464A (bio-tagged) (human, UniProt Q9UDY8 1-824)
T3 construct: also called C464A mutant; C464 mutant
T3 sequence (looked up): T1 sequence (looked up) with C464A

binding result [1]: binds
B1: BCL10 (other, UniProt O95999 1-233, looked up)
chain: MEPTAPSLTEEDLTEVKKDALENLRVYLCEKIIAERHFDHLRAKKILSREDTEEISCRTSSRKRAGKLLDYLQENPKGLDTLVESIRREKTQNFLIQKITDEVLKLRNIKLEHLKGLKCSSCEPFPDGATNNLSRSNSDESNFSEKLRASTVMYHPEGESSTTPFFSTNSSLNLPVLEVGRTENTIFSSTTLPRPGDPGAPPLPPDLQLEEEGTCANSSEMFLPLRSRTVSRQ
notes: Co-precipitated from lysates of human cell lines

binding result [2]: binds
binding result [3]: binds
B2: TRAF6 (other, UniProt Q9Y4K3 1-522, looked up)
chain: MSLLNCENSCGSSQSESDCCVAMASSCSAVTKDDSVGGTASTGNLSSSFMEEIQGYDVEFDPPLESKYECPICLMALREAVQTPCGHRFCKACIIKSIRDAGHKCPVDNEILLENQLFPDNFAKREILSLMVKCPNEGCLHKMELRHLEDHQAHCEFALMDCPQCQRPFQKFHINIHILKDCPRRQVSCDNCAASMAFEDKEIHDQNCPLANVICEYCNTILIREQMPNHYDLDCPTAPIPCTFSTFGCHEKMQRNHLARHLQENTQSHMRMLAQAVHSLSVIPDSGYISEVRNFQETIHQLEGRLVRQDHQIRELTAKMETQSMYVSELKRTIRTLEDKVAEIEAQQCNGIYIWKIGNFGMHLKCQEEEKPVVIHSPGFYTGKPGYKLCMRLHLQLPTAQRCANYISLFVHTMQGEYDSHLPWPFQGTIRLTILDQSEAPVRQNHEEIMDAKPELLAFQRPTIPRNPKGFGYVTFMHLEALRQRTFIKDDTLLVRCEVSTRFDMGSLRREGFQPRSTDAGV
notes: as for B1
